Patent publication US9827292B2, “Use of KGF in the treatment of menopausal disorders” (Università degli Studi di Roma “La Sapienza”, priority 2012, dated 2017)

How the values were obtained:
MAPK ERK1 and 2 = experiment: Western blot of ERK phosphorylation in MCF-7 cells; type: cell-based, human; conditions: 20 ng/ml, FIG. 2A; for activation (phosphorylation) of ERK1 and 2: 5 and 30 minutes of treatment
Method: The oestrogen receptor α-positive MCF-7 human breast adenocarcinoma cell line, acquired from American Type Culture Collection (no. HTB-22, ATCC-LGC Promochem, Teddington, UK), was cultured in Dulbecco's modified eagle's medium (DMEM; Invitrogen, Karlsruhe, Germany), supplemented with 10% foetal bovine serum (FBS; Invitrogen) and antibiotics. Primary cultures of human oestrogen-sensitive keratinocytes (KCs) were established from 1 cm^2 full-thickness mucosal biopsy of the vaginal vestibule. Following enzymatic dissociation, the keratinocytes were seeded onto culture plates coated with collagen IV (10 mg/ml), as previously reported [Panici et al, 2007], and were maintained in basal medium of the keratinocytes (KBM, Lonza) supplemented with aliquots of KGM (Lonza), with medium change twice a week. For all the experiments with 17β-oestradiol (E2) and tamoxifen, the MCF-7 cells were cultivated in DMEM without phenol red with 10% FBS treated with dextran/carbon (Invitrogen), and the KCs were transferred to a steroid medium of reduced concentration (KGM without EGF and BPE). Both MCF-7 and KC were deprived of serum for 4 hours and then treated for 48 h with human recombinant KGF (Upstate Biotechnology, Lake Placid, N.Y.), E2 (Sigma-Aldrich, Milan, Italy), tamoxifen (Sigma-Aldrich, 100 nM) or combinations thereof.
MCF-7 cells untreated or treated with KGF or E2 were lysed in RIPA buffer. Total proteins (50-150 μg) were broken down under reducing conditions by 7%-10% SDS-PAGE and transferred to Immobilon-FL membranes (Millipore, Billerica, Mass.). The membranes were blocked in TBS containing 0.5% Tween 20 (TBS-T) and 5% milk for 1 hour at 25° C. and were then washed twice for 20 minutes in each case in TBS-T. The membranes were incubated overnight at 4° C. with the primary antibody. […] The bound antibody was detected by enhanced chemiluminescence detection reagents (Pierce Biotechnology, Inc, Rockford, Ill., USA), according to manufacturer's instructions. […] Densitometric analysis was performed using Quantity One Program (Bio-Rad Laboratories srl, Segrate, MI, Italy).

vaginal epithelium = experiment: Vaginal atrophy model in ovariectomised CD1 mice, local hydrogel treatment, histology; type: in vivo, mouse; conditions: for cornification of vaginal epithelium (hematoxylin and eosin) / stratification of the vaginal epithelium and hyperkeratosis (hematoxylin and eosin): low and high doses, 60 days; for cornification of vaginal epithelium (hematoxylin and eosin): not in vehicle group, FIG. 8A; for stratification of the vaginal epithelium and hyperkeratosis (hematoxylin and eosin): versus vehicle only, FIG. 7B
Method: The mouse strain CD1 was used in this study (Charles Rivers). The mice were held in a standard housing for laboratory animals with controlled lighting (12 h/day) and temperature (25±1° C.) and were provided with food and water ab libitum. All the experimental protocols concerning animals were in line with the Guidelines of Sapienza University for the care and use of laboratory animals and were approved by the Ethical Committee of the aforesaid institution. Forty female mice were subjected to an ovariectomy for the purpose of inducing vaginal atrophy and were administered a diet of Altromin C1000 without phytoestrogens (Altromin, Lage, Germany) for the duration of the experiments. After 30 days, the mice were treated locally, introducing daily into the vaginal canal 25 μl of hydrogel loaded with KGF (10 or 30 ng/day) or with E2 (30 ng/day or 1 μg/day). A control group was treated only with hydrogel. After 60 days of treatment, the mice were killed and the vaginas were immediately explanted, fixed in formalin and processed for histological analysis.
Serial sections of the vaginal mucus obtained from four groups of mice were stained with hematoxylin/eosin, placed permanently under a glass plate and analysed histologically. The thickness and the strata of epithelial cells of the vagina were then determined in three animals for each group, in three images for each animal (10× enlargement). Mean values were obtained from five measurements of each image. For the purpose of quantifying the thickness of the vaginal epithelium, the vertical distance between the lower surface of the cells in the stratum basale and the apical surface of the cells in the stratum superficiale was measured with the aid of NIH Image J v 1.56 (National Institutes of Health, Bethesda, Md.), and denoted as thickness. To estimate the number of vaginal epithelial layers, the layer of cells covering five contiguous basal cells was counted in the sample.
Serial sections of the vaginal mucus obtained from the four groups of mice were analysed for the expression of PCNA (Proliferating Cell Nuclear Antigen, a marker of cell proliferation) by means of immunohistochemistry. The sections were elaborated using the technique of avidin-biotin-peroxidase complex (DAKO, Glostrup, Denmark) and incubated with mouse anti-A-rat-PCNA monoclonal antibody (clone P10, 1:4000) (Abcam, Cambridge, UK), which recognises proliferant cells.
All the animals enrolled in the study were fed with a special diet devoid of oestrogens (special altromin C1000 phytoestrogen-free diet). The mice subject to an ovariectomy were then divided into […]: one group received no treatment; one group received only the vehicle; one group received the vehicle+E2 30 ng/day; one group received the vehicle+E2 1 μg/day; one group received the vehicle+KGF 10 ng/day; and one group received the vehicle+KGF 30 ng/day.
The animals were killed and the vaginas removed and immediately fixed in formalin and processed for histology. Vaginal epithelium of the treated mice was analysed histologically by means of hematoxylin/eosin and was compared with the epithelium of the group of mice not subjected to ovariectomy (FIGS. 7B and 8A). The criteria adopted in order to determine the trophism of the vaginal mucus were the thickness (evidenced by counting the number of epithelial layers present and by measuring the thickness of the epithelium in μm and also by means of the ratio between area of the epithelial layer and length of the basal membrane) (FIG. 8B) and the proliferative ability of the keratinocytes (determined by means of analyses of the expression of PCNA, a marker of cell proliferation) (FIG. 9).

| Molecule | activation (phosphorylation) of ERK1 and 2 (MAPK ERK1 and 2) | activation of ERK 1 and 2 at longer times (MAPK ERK1 and 2; 30 min) | cornification of vaginal epithelium (hematoxylin and eosin) (vaginal epithelium) | stratification of the vaginal epithelium and hyperkeratosis (hematoxylin and eosin) (vaginal epithelium) | increase in epithelial thickness, KGF versus E2 (vaginal epithelium; KGF at 30 ng/25 ul and E2 at 1 ug/25 ul, FIG. 8B) | epithelium lubrication / mucinous (PAS-positive) cells (vaginal epithelium; topical KGF, PAS staining, FIG. 9B) | vaginal thinning / epithelial cell proliferation (vaginal epithelium; topical KGF, ovariectomised mice, FIG. 9) |
| --- | --- | --- | --- | --- | --- | --- | --- |
| C[C@]12CC[C@@H]3c4ccc(O)cc4CC[C@H]3[C@@H]1CC[C@@H]2O [E2, 17β-oestradiol] | less consistent rise in the levels of phosphorylation of ERK1 and 2 limited to 5 min of treatment | considerably reduced | Cornificated vaginal epithelium was observed | significant induction of stratification of the vaginal epithelium and hyperkeratosis | – | – | – |
| keratinocyte growth factor (protein, listed as Homo sapiens, human recombinant KGF (Upstate Biotechnology)) MHKWILTWILPTLLYRSCFHIICLVGTISLACNDMTPEQMATNVNCSSPERHTRSYDYMEGGDIRVRRLFCRTQWYLRIDKRGKVKGTQEMKNNYNIMEIRTVAVGIVAIKGVESEFYLAMNKEGKLYAKKECNEDCNFKELILENHYNTYASAKWTHNGGEMFVALNQKGIPVRGKKTKKEQKTAHFLPMAIT | consistent and constant activation of MAPK | – | Cornificated vaginal epithelium was observed | significant induction of stratification of the vaginal epithelium and hyperkeratosis | same increase in epithelial thickness | restore epithelium lubrication through stimulation of mucinous cells | able to counteract vaginal thinning by stimulating epithelial cells proliferation |
